B1: NCK2 (parent)
chain: YVERKNSLKKGSLVKNLKDTLGLG

Variants of: B1
Test: protein stability index of a GFP-peptide fusion (GPS, HEK-293T) (PSI 1-6); higher = more stable
Details: c terminus: a fixed tail appended
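Also: lentivirally expressed fusions sorted by FACS into six bins by GFP to DsRed ratio, PSI derived from sequencing read proportions per bin multiplied by bin number.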

Protein stability index of substitutions, site by site:
T20: F 1.75; Q 2.64; A 2.33; G 2.45; V 1.97; M 2; H 1.75; I 3.27; C 1.82; D 2.3; R 1.97; P 2.21; S 2.66; N 2.62; Y 1.88
L21: F 2.18; Q 2.3; M 2.64; Y 2.41; A 2.4; S 2.51; G 2.49; I 2.42; D 2.81; K 2.32; R 1.98; C 2.71; W 2.12; P 2.39; V 2.25; E 2.74
S12: F 2.53; I 2.46; N 2.63; E 2.4; T 2.01; C 2.13; G 2.07; Y 2.19; V 2.38; P 2.31; M 1.75; L 1.64
K10: W 1.78; E 2.29; R 2.17; F 2.48; S 2.31; C 2.29; I 1.89; L 2.17; A 2.11; P 1.88; H 1.82; D 2.56; M 1.94; N 1.83; Y 1.68; V 2.04
K15: C 2.12; E 2.81; Y 1.91; T 2.56; S 2.26; A 2.09; R 1.81; N 2.41; V 1.94; F 1.69; M 2.47
R4: P 2.2; G 2.19; I 1.81; T 1.78; C 1.83; V 1.78; S 2.26; Y 1.33; F 1.52; K 2.46; L 1.57; E 2.42; W 1.57; D 2.67; N 2.48; M 1.62
N6: G 2.38; P 2.28; T 1.94; R 2.25; L 1.1; W 2.32; I 2.39; V 1.58; A 2.24; S 2.1; H 2.61; C 1.73; Y 1.64; Q 2.53
D19: T 1.83; N 2.84; P 1.95; Q 2.21; S 2.16; Y 1.49; V 1.78; F 2.24; K 1.91; E 2.43; W 2.35; L 1.4; A 2; M 2.6; G 1.92
K5: Y 2.84; D 2.26; S 2.24; I 1.99; C 1.75; R 2.52; M 1.79; E 2.92; P 1.89; L 1.51; N 2.4; H 2.13; W 2.57; A 2.12; G 2.34
K9: Q 2.32; S 2.84; P 2.05; Y 2.28; V 2.48; M 1.92; R 2.54; F 3.15; N 2.32; D 2.37
E3: Q 1.96; C 1.83; T 1.78; A 1.66; S 2.23; R 2.52; P 1.65; M 2.11; K 2.23; I 2.1; Y 1.63; N 2.04; L 2.07
G24: A 2.36; M 2.09; C 2.2; R 2.19; P 2.28; H 2.43; V 1.67; D 2.8; Y 1.67; K 2.13; Q 2.59; F 1.48; S 2.58; E 3.21; W 1.97
L17: E 2.85; N 2.77; D 2.92; A 2.62; H 2.34; M 2.78; Q 3.16; I 2.43; F 1.87; G 2.88; W 1.69
V2: G 3.19; A 3.09; L 2.71; N 3.59; K 3.67; I 2.84; C 2.47; W 2.49; M 2.81; E 4.17; F 2.44; Q 3.39; S 2.94; H 2.66
G11: R 2.32; P 2.11; K 2.9; L 1.87; H 2.02; E 2.72; A 2.18; Q 3.13; C 2.09; S 2.43; F 2.69; W 1.93; Y 1.59; V 2.42; M 1.8; N 2.4
V14: A 2.53; N 2.44; Q 2.74; Y 1.98; R 2.6; W 1.89; M 2.46; E 2.16; F 1.96; H 1.84; T 2.66; I 2.35; K 2.25; G 2.04; L 2.31
L23: H 2.02; N 2.9; W 2.44; K 2.71; S 3.21; R 2.89; C 2.53; V 2.57; P 2.97; Y 1.94; G 2.94; T 2.64; M 2.7
Y1: E 4.06; P 3.8; I 3.03; R 3.18; N 3.71; A 3.59; F 1.81; D 4.13; V 3.41; H 4.01; S 3.3; C 3.41; G 3.92; Q 4.01; T 3.65
G22: E 2.34; Y 2.33; F 2.86; R 1.97; T 2.37; M 2.23; K 2.09; I 1.9; P 2.44; W 2.56; D 2.21
L8: E 2.96; T 2.58; D 2.92; C 2.41; G 3.27; H 3.11; I 2.27; V 2.16; Y 2.14; W 1.89; K 2.47; R 2.09; F 2.33; P 2.8
K18: W 1.8; T 2.65; N 2.3; H 2.6; M 1.72; C 2.94; Q 2.48; R 2.46; S 2.07; A 2.25; G 1.84; I 2.84; E 2.46; V 2.42; L 2.08
L13: E 2.87; F 1.86; R 1.99; G 2.41; T 2.63; C 1.97; H 2.29; Q 2.64; S 2.54; P 3.05; K 2.38
N16: G 2.3; A 2.33; F 2.69; K 2.04; Q 1.97; S 2.16; R 1.98; M 1.3; W 1.68; P 2.61; E 2.73; T 2.41; D 2.29
S7: N 2.07; W 3.27; E 2.9; M 1.88; C 2.22; T 2.16; K 2.84; A 2.29; D 2.57; L 2.43; P 1.82; F 2.66; Y 1.74; R 2.22; G 1.99; V 1.94; I 1.86; H 2.02
